Substrate in this data set: O=C(O)CCC(=O)C(=O)O
Put plainly: RapidFire SPE-MS of Skp1 hydroxylation, Michaelis-Menten fit. It counts as biochemical, Dictyostelium discoideum. The note with it: cosubstrate, full-length DdSkp1 100 μM, Fe(II) 50 μM, L-ascorbate 1 mM, HEPES pH 7.6, 37 °C, atmospheric O2. The source says: RapidFire SPE-MS of Skp1 hydroxylation, Michaelis-Menten fit on DdPhyA

B1: DdPhyA (Dictyostelium discoideum) (protein)
chain: MDISNLPPHIRQQILGLISKPQQNNDESSSSNNKNNLINNEKVSNVLIDLTSNLKIENFKIFNKESLNQLEKKGYLIIDNFLNDLNKINLIYDESYNQFKENKLIEAGMNKGTDKWKDKSIRGDYIQWIHRDSNSRIQDKDLSSTIRNINYLLDKLDLIKNEFDNVIPNFNSIKTQTQLAVYLNGGRYIKHRDSFYSSESLTISRRITMIYYVNKDWKKGDGGELRLYTNNPNNTNQKELKQTEEFIDIEPIADRLLIFLSPFLEHEVLQCNFEPRIAITTWIY
notes: full-length aa 1-284, E. coli BL21 Gold (DE3), N-terminal His6-ZBasic tag cleaved by TEV, EDTA-treated to remove metal
On to B1, for which the Km is 36 ± 6 µM.

The values above are taken from paper PMC7864055, “Biochemical and biophysical analyses of hypoxia sensing prolyl hydroxylases from Dictyostelium discoideum and Toxoplasma gondii” (The Journal of Biological Chemistry, 2021).
